Reference: patent publication US20250277029A1 (Amgen, published 2025)

Key:
His-tagged huCB1-ND = biological target: T1, His-tagged huCB1-ND (human, UniProt P21554 99-414, limits assumed); assay: flow cytometry, yeast-displayed Fab, 0.5 nM CB1 ND
T1 construct: The real construct may be truncated or engineered; also called CB1-nanodisc; not shown: histidine purification tag

GFP-fused huCB1-SMALP [1] = biological target: T2, GFP-fused huCB1-SMALP (human, UniProt P21554 1-472); assay: flow cytometry, yeast-displayed Fab, 5 nM CB1 SMALP
T2 construct: Human CB1 fused to GFP in styrene maleic acid lipoparticles, made as in Luna et al. 2018; also called huCB1-GFP-SMALP; GFP-tagged huCB1-SMALP; not shown: GFP fused to huCB1

Empty ND = biological target: T3, Empty ND; assay: flow cytometry, yeast-displayed Fab, 50 nM Empty ND
T3 construct: It carries no receptor; the scaffold is its only protein; also called empty nanodisc

GFP-fused huCB1-SMALP [2] = biological target: T2, GFP-fused huCB1-SMALP; assay: flow cytometry, yeast-displayed Fab, 10 nM CB1 SMALP
[3] = biological target: human cannabinoid receptor 1 (huCB1), full length, expressed on cells (human, UniProt P21554 1-472); assay: cell-based or functional assay
Chain of human cannabinoid receptor 1 (huCB1), full length, expressed on cells (P21554 whole entry): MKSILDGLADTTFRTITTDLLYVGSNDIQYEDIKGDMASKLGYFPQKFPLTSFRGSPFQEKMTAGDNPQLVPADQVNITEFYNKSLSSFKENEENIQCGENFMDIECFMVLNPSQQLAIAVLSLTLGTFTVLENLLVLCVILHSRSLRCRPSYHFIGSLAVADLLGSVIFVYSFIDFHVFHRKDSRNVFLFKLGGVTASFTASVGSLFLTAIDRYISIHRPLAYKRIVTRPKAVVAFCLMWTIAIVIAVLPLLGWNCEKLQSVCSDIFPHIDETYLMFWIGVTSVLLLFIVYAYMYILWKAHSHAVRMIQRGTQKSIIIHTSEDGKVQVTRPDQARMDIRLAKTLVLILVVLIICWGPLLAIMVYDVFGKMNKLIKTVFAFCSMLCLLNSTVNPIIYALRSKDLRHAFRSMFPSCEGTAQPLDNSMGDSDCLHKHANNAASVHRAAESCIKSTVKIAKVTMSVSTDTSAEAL

T2 sequence (P21554 whole entry, the tested form may be a part): as the sequence (P21554 whole entry) above
T1 sequence (P21554 99-414 limits assumed): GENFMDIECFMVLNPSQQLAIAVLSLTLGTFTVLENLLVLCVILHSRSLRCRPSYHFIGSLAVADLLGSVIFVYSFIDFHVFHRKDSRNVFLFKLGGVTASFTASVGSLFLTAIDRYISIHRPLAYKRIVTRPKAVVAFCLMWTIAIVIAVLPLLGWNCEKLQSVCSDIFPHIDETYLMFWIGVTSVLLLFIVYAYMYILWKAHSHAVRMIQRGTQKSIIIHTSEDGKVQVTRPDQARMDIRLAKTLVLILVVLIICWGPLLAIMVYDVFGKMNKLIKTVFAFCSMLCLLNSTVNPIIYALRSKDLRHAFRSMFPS

Row | Binder | relative binding fold change compared to LIBC523797-1(Fab) (His-tagged huCB1-ND) | relative binding fold change compared to LIBC523797-1(Fab) (GFP-fused huCB1-SMALP [1]) | relative binding fold change compared to LIBC523797-1(Fab) (Empty ND) | relative binding fold change compared to LIBC523797-1(Fab) (GFP-fused huCB1-SMALP [2]) | Mean IC50 (nM), cAMP antagonist assay [3] | Mean IC50, -fold vs Rimo [3] | n = 1 IC50 (nM), cAMP antagonist assay [3] | n = 1 IC50, -fold vs Rimo [3] | n = 2 IC50 (nM), cAMP antagonist assay [3] | n = 2 IC50, -fold vs Rimo [3]
1 | LIBC529593-1 (Fab) (Fab, V domains shown) VH: QVQLQESGPGLVKPSQTLSLTCTVSGGSIRRGGDYWSWIRQHPGKGLEWIGHIYYSGSTNYNPSLRSRVRISVDTSKNQFSLKLSSVTAADTAVYYCARDYDILTGYSYYYYGLDVWGQGTTVTVSS VL: not shown | 0.38 fold | 1.42 fold | 1.14 fold | 1.06 fold |  |  |  |  |  | 
2 | LIBC674153-1 (Fab on yeast) (Fab, V domains shown, Clone of the Fab-yeast libraries) VH: QVQLQESGPGLVKPSQTLSLTCTVSGGSIRRGGDYWSWIRQHPGKGLEWIGHVYYTGSTAYNPSFRGRVRISVNTYKNQFSLKLSSVTAADTAVYYCARGYDTSGYSYYYYGLDVWGQGTTVTVSS VL: not shown | 1.83 fold | 1.35 fold | 0.33 fold | 2.62 fold |  |  |  |  |  | 
3 | LIBC673972-1 (Fab on yeast) (Fab, V domains shown, Clone of the Fab-yeast libraries) VH: QVQLQESGPGLVKPSQTLSLTCTVSGGSIRRGGDYWSWIRQHPGKGLEWIGHIYYTGQTAYNPNLRNRVRISVNTYKNQFSLKLSSVTAADTAVYYCARGYDASGYSYYYYGLDVWGQGTTVTVSS VL: not shown | 0.63 fold | 1.46 fold | 0.4 fold | 2.46 fold |  |  |  |  |  | 
4 | LIBC673948-1 (Fab on yeast) (Fab, V domains shown, Clone of the Fab-yeast libraries) VH: QVQLQESGPGLVKPSQTLSLTCTVSGGSIRRGGDYWSWIRQHPGKGLEWIGHIYYTGSTKYNPSLKNRVRISVNTYKNQFSLKLSSVTAADTAVYYCARGYDVSGYSYYYYGLDVWGQGTTVTVSS VL: not shown | 0.64 fold | 1.37 fold | 0.48 fold | 2.46 fold |  |  |  |  |  | 
5 | LIBC673982-1 (Fab on yeast) (Fab, V domains shown, Clone of the Fab-yeast libraries) VH: QVQLQESGPGLVKPSQTLSLTCTVSGGSIRRGGDYWSWIRQHPGKGLEWIGHIYYTGSTTYNPSFRGRVRISVNTYKNQFSLKLSSVTAADTAVYYCARDYDISGYSYYYYGMDVWGQGTTVTVSS VL: not shown | 0.78 fold | 1.24 fold | 0.6 fold | 2.16 fold |  |  |  |  |  | 
6 | LIBC674002-1 (Fab on yeast) (Fab, V domains shown, Clone of the Fab-yeast libraries) VH: QVQLQESGPGLVKPSQTLSLTCTVSGGSIRRGGDYWSWIRQHPGKGLEWIGHIYYKGSTEYNPSLRGRVRISVNTYKNQFSLKLSSVTAADTAVYYCARGYDVSGYSYYYYGLDVWGQGTTVTVSS VL: not shown | 0.46 fold | 1.49 fold | 0.03 fold | 2.59 fold |  |  |  |  |  | 
7 | LIBC673965-1 (Fab on yeast) (Fab, V domains shown, Clone of the Fab-yeast libraries) VH: QVQLQESGPGLVKPSQTLSLTCTVSGGSIRRGGDYWSWIRQHPGKGLEWIGHVYYTGQTAYNPSLRGRVRISVNTYKNQFSLKLSSVTAADTAVYYCARGYDTSGYSYYYYGLDVWGQGTTVTVSS VL: not shown | 0.65 fold | 1.3 fold | 0.43 fold | 2.5 fold |  |  |  |  |  | 
8 | LIBC528131-1 (antibody, V domains shown) VH: QVQLQESGPGLVKPSQTLSLTCTVSGGSIRRGGDYWSWIRQHPGKGLEWIGHIYQTGQTAYNPNLEGRATISVNTYKNQFSLKLSSVTAADTAVYYCARDYDILTGYSYYYYGMDVWGQGTTVTVSS VL: EIVLTQSPATLSLSPGERATLSCRASQSVSSYLGWYQQKPGQAPRLLIYGASSRATGIPDRFSGSGSGTDFTLTISRLEPEDFAVYYCQQYGSSPRTFGQGTKVEIKR |  |  |  |  | 4.23 nM | 1.41 fold vs Rimonabant | 6.63 nM | 1.57 fold vs Rimonabant | 1.83 nM | 1.02 fold vs Rimonabant
9 | LIBC528169-1 (antibody, V domains shown) VH: QVQLQESGPGLVKPSQTLSLTCTVSGGSIRRGGDYWSWIRQHPGKGLEWIGHIYQSGSTKYNPSFEDRATISVNTYKNQFSLKLSSVTAADTAVYYCARDYDILTGYSYYYYGMDVWGQGTTVTVSS VL: DIQLTQSPSTLSASVGDRVTITCRASQSISNYLNWYQQKPGKAPKLLIYAASSLHSGVPSRFSGSGSGTDFTLTISSLQPEDFASYYCQQYQSYPLTFGQGTKVEIKR |  |  |  |  | 7.81 nM | 2.6 fold vs Rimonabant | 12.3 nM | 2.92 fold vs Rimonabant | 3.31 nM | 1.85 fold vs Rimonabant
10 | LIBC528141-1 (antibody, V domains shown) VH: QVQLQESGPGLVKPSQTLSLTCTVSGGSIRRGGDYWSWIRQHPGKGLEWIGHVYQTGSTKYNPRFKGRATISVNTYKNQFSLKLSSVTAADTAVYYCARDYDILTGYSYYYYGMDVWGQGTTVTVSS VL: DIQLTQSPSTLSASVGDRVTITCRASQSISNYLNWYQQKPGKAPKLLIYAASSLHSGVPSRFSGSGSGTDFTLTISSLQPEDFASYYCQQYQSYPLTFGQGTKVEIKR |  |  |  |  | 4.05 nM | 1.35 fold vs Rimonabant | 6.26 nM | 1.49 fold vs Rimonabant | 1.84 nM | 1.03 fold vs Rimonabant
11 | LIBC527827-1 (antibody, V domains shown) VH: QVQLQESGPGLVKPSQTLSLTCTVSGGSIRRGGDYWGWIRQHPGKGLEWIGHVYQSGQTAYNPKFENRATISVKTYKNQFSLKLSSVTAADTAVYYCARNYDTLTGHSYYYYGMDVWGQGTTVTVSS VL: DIQMTQSPSTLSASVGDRVTITCRASQSISNYLNWYQQKPGKAPKLLIYAASSLHSGVPSRFSGSGSGTDFTLTISSLQPEDFASYYCQQYQSYPLTFGQGTKVEIKR |  |  |  |  | 23.7 nM | 7.89 fold vs Rimonabant | 32 nM | 7.6 fold vs Rimonabant | 15.3 nM | 8.54 fold vs Rimonabant
12 | LIBC528148-1 (antibody, V domains shown) VH: QVQLQESGPGLVKPSQTLSLTCTVSGGSIRRGGDYWSWIRQHPGKGLEWIGHIYQSGQTKYNPKLKGRATISVDTYKNQFSLKLSSVTAADTAVYYCARDYDILTGYSYYYYGMDVWGQGTTVTVSS VL: DIQLTQSPSTLSASVGDRVTITCRASQSISNYLNWYQQKPGKAPKLLIYAASSLHSGVPSRFSGSGSGTDFTLTISSLQPEDFASYYCQQYQSYPLTFGQGTKVEIKR |  |  |  |  | 5.95 nM |  | 9.1 nM |  |  | 
13 | LIBC527912-1 (antibody, V domains shown) VH: QVQLQESGPGLVKPSQTLSLTCTVSGGSIRRGGDYWSWIRQHPGKGLEWIGYIYQTGQTKYNPNFEGRATISVNTYKNQFSLKLSSVTAADTAVYYCARDYDILTGYSYYYYGMDVWGQGTTVTVSS VL: DIQLTQSPSSLSASVGDRVTITCRASQSISSYLNWYQQKPGKAPKLLIYAASSLRSGVPSRFSGSGSGTDFTLTISSLQPEDFATYYCQQYSNYPLTFGGGTRVEIKR |  |  |  |  | 3.95 nM | 1.32 fold vs Rimonabant | 5.91 nM | 1.4 fold vs Rimonabant | 1.99 nM | 1.11 fold vs Rimonabant
14 | LIBC527906-1 (antibody, V domains shown) VH: QVQLQESGPGLVKPSQTLSLTCTVSGGSIRRGGDYWGWIRQHPGKGLEWIGHIYQTGSTNYNPNFKDRATISVDTYKNQFSLKLSSVTAADTAVYYCARDYDILTGYSYYYYGMDVWGQGTTVTVSS VL: DIQLTQSPSTLSASVGDRVTITCRASQSISNYLNWYQQKPGKAPKLLIYAASSLHSGVPSRFSGSGSGTDFTLTISSLQPEDFASYYCQQYQSYPLTFGQGTKVEIKR |  |  |  |  | 5.15 nM | 1.72 fold vs Rimonabant | 7.66 nM | 1.82 fold vs Rimonabant | 2.64 nM | 1.48 fold vs Rimonabant
15 | LIBC527968-1 (antibody, V domains shown) VH: QVQLQESGPGLVKPSQTLSLTCTVSGGSIRRGGDYWSWIRQHPGKGLEWIGHIYQSGSTKYNPSFKDRATISVNTYKNQFSLKLSSVTAADTAVYYCARDYDILTGYSYYYYGMDVWGQGTTVTVSS VL: DIQLTQSPSTLSASVGDRVTITCRASQSISNYLNWYQQKPGKAPKLLIYAASSLHSGVPSRFSGSGSGTDFTLTISSLQPEDFASYYCQQYQSYPLTFGQGTKVEIKR |  |  |  |  | 4.03 nM | 1.34 fold vs Rimonabant | 6.1 nM | 1.45 fold vs Rimonabant | 1.95 nM | 1.09 fold vs Rimonabant
